Experimental data published in publication PMC11919473, “Synthesis and characterisation of DOTA‐kisspeptin‐10 as a potential gallium‐68/lutetium‐177 pan‐tumour radiopharmaceutical” (Journal of Neuroendocrinology, 2025).
Where two headings read alike, the source gives them in different places.

Experiments:
KISS1R = molecular target: T1, KISS1R (Homo sapiens, UniProt Q969F8); assay: Inositol phosphate (IP) accumulation assay in HEK 293‐T cells transiently transfected with KISS1R; type: cell-based; details: for EC50: HEK 293‐T cells expressing KISS1R
T1 construct: expressed in transfected cells; host or cells: HEK 293-T cells, transient transfection with XtremeGene HP
T1 sequence (Q969F8 whole entry): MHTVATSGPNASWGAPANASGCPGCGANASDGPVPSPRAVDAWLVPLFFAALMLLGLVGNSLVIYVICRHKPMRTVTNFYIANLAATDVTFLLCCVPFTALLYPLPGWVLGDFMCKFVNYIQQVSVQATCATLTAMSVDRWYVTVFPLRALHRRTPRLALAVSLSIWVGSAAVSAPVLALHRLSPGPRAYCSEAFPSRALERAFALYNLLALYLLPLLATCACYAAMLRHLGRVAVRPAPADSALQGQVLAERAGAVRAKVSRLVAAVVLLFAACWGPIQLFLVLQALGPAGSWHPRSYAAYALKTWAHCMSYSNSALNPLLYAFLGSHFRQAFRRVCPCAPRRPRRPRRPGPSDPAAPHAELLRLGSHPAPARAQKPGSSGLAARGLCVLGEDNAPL
Description: HEK 293‐T cell culturing and the IP accumulation assay were performed as described by Newton et al.[15], [16] The IP assay measures the response of the cells to ligands that is a measure of the binding affinity and stimulation of intracellular signalling. This assay was applied to determine whether the novel ligand retained the same or improved activity as KP10.
HEK 293‐T cells were cultured and maintained using DMEM (10% FBS) media supplemented with Glutamax at 37°C, 5% CO2 and 95% relative humidity. HEK 293‐T cells were passaged at 90% confluency using Trypsin. HEK 293‐T cells were plated out into 24‐well plates at a density of 1 × 10^5 cells/well. Each well was pre‐coated with Matrigel at a 1:30 dilution to ensure adhesion to the well. KISS1R gene construct was transiently transfected into the HEK 293‐T cells at a concentration of 10 ng/μL of KISS1R using XtremeGene HP (1:2 ratio) DNA transfection reagent. Cells were incubated overnight at 37°C at 5% CO2.
For the IP assay, the HEK 293‐T cells were incubated with myoinositol‐[2‐3H] […] The radiolabelled IPs were separated using a Dowex 100–200 mesh resin ion‐exchange chromatography, and the radioactivity (cpm) was measured using liquid scintillation (Packard Tricarb 2100 TR liquid scintillation analyser TRI‐CARB 4910TR 110 V Liquid Scintillation Counter, Perkin‐Elmer, USA). […] The results were analysed by doing sigmoidal regression to determine the EC 50 and then compared with their respective normalised ligand signalling assay.
The accumulation of the IPs measured for cells transfected with XtremeGene without KISS1R and treated with maximal stimulation of KP10 (1 × 10^−6 M) was subtracted from the measured accumulation of cells stimulated with DOTA‐KP10 over a dose range ([…]–1 × 10^−6 M) that were transfected with KISS1R in the same assay.
For the IP assay, the data were fitted using a nonlinear regression to determine Emax and EC50. Data collected from the ex vivo biodistribution were evaluated using the Kruskal–Wallis analysis. […]

[1] = type: in vitro ADME, human
Description: Stability studies were performed in triplicate using [^68Ga]Ga‐DOTA‐KP10 spiked human serum, plasma or whole blood (samples were removed at 5, 60 and 120 min with incubation at 37°C). […] The samples taken (200 μL) at the selected time points were treated with ice‐cold acetonitrile (500 μL) and thereafter filtered with a 0.22‐μm filter to remove all residual proteins in the extract. This sample was then analysed by the HPLC method as described under Section 2.2.4.

physchem = type: physicochemical
Description: The method published by Jain and co‐workers was used.[21] Briefly, 100 μL (± 100 MBq) of the labelled [^68Ga]Ga‐DOTA‐KP10 was dispersed in a 1‐mL phosphate‐buffered saline (PBS) and octanol mixture (0.9:1). The samples were vortexed (1 min) and then centrifuged (5 min, 6000 rpm). A sample (200 μL) from each phase was taken, and the activity was measured in the Hidex AMG automated gamma counter (Turku, Finland). The partition coefficient (log P) was expressed as the logarithm of the ratio of counts from the n‐octanol fraction versus that of the aqueous fraction.[21], [22]

[2] = set-up: species or system Sprague–Dawley rats; details: rat, in vivo, iv
From the text: All procedures followed during the animal studies adhered to institutional and South African national guidelines for the care and use of laboratory animals (SANS10386:2021). Ethical approval for the study was obtained from the Research Animal Ethics Committee of North-West University (NWU-00560-19-S5) and the University of Pretoria (149/2019), South Africa. The animals were provided by the Department of Science and Technology/North-West University Preclinical Drug Development Platform (PCDDP) Vivarium. The study was conducted at the Preclinical Imaging Facility (PCIF) of the Nuclear Medicine Research Infrastructure (NuMeRI), South Africa. Five healthy Sprague-Dawley rats (male, 6-8 weeks, ±200 g) were enrolled into the study. All animals had ad libitum access to a conventional rodent diet and water. Animals were maintained on a 12-h artificial day/night cycle and supplied with corn cob bedding and nesting material for cage enrichment. […] Hybrid images were viewed and analysed using the InterviewFusionTM software (Mediso, Hungary). A qualitative visual analysis was done on all acquisitions, and blood standardized uptake value values were calculated. […] Data collected from the ex vivo biodistribution were evaluated using the Kruskal-Wallis analysis. […] Organs were measured for activity and expressed as the percentage injected dose per gram of the organ (%ID/g). […]

[3] = type: in vitro ADME, human; remark: listed apart in the source
Description: The red blood cell (RBC) binding assay was performed by the method described by Shi and co‐workers.[22] In brief, radiolabelled [^68Ga]Ga‐DOTA‐KP10 (740 kBq in 10 μL) was mixed with 100 μL of human blood drawn up in the presence of heparin. The mixture was incubated in a shaking incubator at 37°C. Samples ([…]) were collected at two time points, 10 and 30 min. Plasma and blood cells were separated by centrifugation (2000 rpm, 5 min). The plasma was removed, and the blood cells were washed twice with 500 μL of normal saline (0.9% NaCl) that was then added to the plasma fraction. The amount (%) of labelled compound that was bound to the RBC was determined by the ratio of distribution between the plasma and blood cell fraction.[22]

[4] = type: in vitro ADME
Description: The protein binding assay was done as described by Mdlophane et al.[18] In brief, [^68Ga]Ga‐DOTA‐KP10 was incubated for 0, 60 and 120 min in serum at 37°C. Proteins were precipitated in ice‐cold acetonitrile (500 μL) and centrifuged (5000 rpm, 10 min). The supernatant was removed, and the protein pellet was washed with acetonitrile (250 μL). The washed protein pellets and supernatants were measured in an automated gamma‐counter (Hidex, Finland).

in vivo = assay: in vivo; set-up: species or system Sprague–Dawley rats; details: rat; for tissue uptake at 2.5 h: male, Sprague-Dawley, iv, 18.8 MBq, total radioactivity
Description: After the final image was acquired (150 min postinjection), the animals were euthanised and ex vivo biodistribution was performed. Euthanasia was performed by an overdose of isoflurane (without waking up post‐scan) followed by decapitation. A quantitative analysis of the radioactivity biodistribution and uptake in various organs of the rats was conducted. Following micro‐PET/CT imaging, the anesthetised animals were euthanised by decapitation and blood was collected into pre‐weighed BD SST vacutainer tubes (thermos Fisher Scientific, Johannesburg, South Africa). The blood samples were centrifuged (6000 rpm, 5 min) to separate the serum from the blood cells. The blood and serum along with the other dissected tissues and organs (heart, liver, spleen, intestines, testes, stomach, lungs and brain) were weighed, and the radioactivity was measured in the automated gamma counter (Hidex AMG, Turku, Finland). The radioactivity per organ was expressed as the percentage injected dose per gram of the organ (% ID/g). […] Data collected from the ex vivo biodistribution were evaluated using the Kruskal–Wallis analysis. A chi‐squared that was less than the H‐statistic was used to indicate significant differences between the concentrations within regions of interest. Organs were measured for activity and expressed as the percentage injected dose per gram of the organ (%ID/g). A multipoint regression model (exponential fit) was used to estimate blood‐half life.

With `CC(C)C[C@H](NC(=O)CNC(=O)[C@H](Cc1ccccc1)NC(=O)[C@H](CO)NC(=O)[C@H](CC(N)=O)NC(=O)[C@H](Cc1c[nH]c2ccccc12)NC(=O)[C@H](CC(N)=O)NC(=O)[C@@H](N)Cc1ccc(O)cc1)C(=O)N[C@@H](CCCNC(=N)N)C(=O)N[C@@H](Cc1ccccc1)C(N)=O` [KP10, kisspeptin‐10] the EC50 (KISS1R; 1 h ligand incubation at 37°C, 10 mM LiCl, mean ± SEM, N = 4, read-out: EC50 Mean nM ± SEM (N = 4)) was 1.87 ± 0.095 nM.
With `CC(C)C[C@H](NC(=O)CNC(=O)[C@H](Cc1ccccc1)NC(=O)[C@H](CO)NC(=O)[C@H](CC(N)=O)NC(=O)[C@H](Cc1c[nH]c2ccccc12)NC(=O)[C@H](CC(N)=O)NC(=O)[C@H](Cc1ccc(O)cc1)NC(=O)CN1CCN(CC(=O)O)CCN(CC(=O)O)CCN(CC(=O)O)CC1)C(=O)N[C@@H](CCCNC(=N)N)C(=O)N[C@@H](Cc1ccccc1)C(N)=O` [DOTA‐KP10] the EC50 (KISS1R; four independent experiments, read-out: EC50) was 3.99 nM and the Emax (KISS1R; HEK-293T, KP10 maximal response set at 100%, read-out: Maximal response as % of that of KP10) was 97.8%.
For `CC(C)C[C@H](NC(=O)CNC(=O)[C@H](Cc1ccccc1)NC(=O)[C@H](CO)NC(=O)[C@H](CC(N)=O)NC(=O)[C@H](Cc1c[nH]c2ccccc12)NC(=O)[C@H](CC(N)=O)NC(=O)[C@H](Cc1ccc(O)cc1)NC(=O)CN1CCN(CC(=O)O)CCN(CC(=O)O)CCN(CC(=O)O)CC1)C(=O)N[C@@H](CCCNC(=N)N)C(=O)N[C@@H](Cc1ccccc1)C(N)=O` [[^68Ga]Ga‐DOTA‐KP10, metal not drawn], the “Stability in plasma at 5 min” value [1] was “formation of a degradation product”, the “Stability in whole blood at 5 min” value [1] was “formation of a degradation product” and the logD (physchem) was -2. For the same compound, the “Accumulation in the brain or lungs on micro‐PET/CT” value [2] was “no noticeable accumulation”, the “Uptake in the hypothalamus on micro‐PET/CT images” value [2] was “No uptake was observed” and the “Binding to red blood cells at 10 min” value [3] was 6.72 ± 0.37%. For the same compound, the “Binding to red blood cells at 30 min” value [3] was 6.35 ± 2.7%, the “Radioactivity bound to plasma proteins after initiating the incubation (0 min)” value [4] was 28.2 ± 1.35% and the “Radioactivity bound to plasma proteins at 2 h” value [4] was 67.99 ± 3.56%. The tissue uptake at 2.5 h (in vivo; Ex vivo radioactivity in kidneys) was 1.5 ± 0.2 %ID/g, the tissue uptake at 2.5 h (in vivo; Ex vivo radioactivity in organs other than kidneys) was under 0.5 %ID/g and the “Serum:blood ratio” value (in vivo) was “sixfold to eightfold”.
